# Assay results reported in patent US20020173477A1.
# Target: human Cε-containing IgE in serum of Hu-IgE transgenic mice (human Cε region and the H chain V region of the murine Mab BAT123) (human) (UniProt P01854)
# Test: cell-based or functional assay
substance,measurement,value
"Hu-901 (mCγ2a,κ), intact anti-IgE antibody with humanized variable regions and murine constant regions (from UniProt P01863 1-330)","IgE suppression in Hu-IgE transgenic mice infected with Ad-Hu-901 (mCγ2a,κ), day 4 post infection (free IgE ELISA)",40 to 90%
